Data: the domain aggregation screens of Martell et al. (2025)

Assay: soluble fraction after stress (log2 fold change); higher = more stays soluble; pooled small domains, quantitative proteomics
Settings: stress: 75 degC
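Also: 20 min heating vs room temperature control held 20 min.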

Row | Sequence | soluble fraction (log2)
1 | HMEELIEMNGVVMEILPDSRYRVTLDNGHKLIAYTGGKMKKNHIRILAGDKVTLELSPYDINNGRITFRHI | -1.66
2 | HMEELTDSELNNLYRELFIARSNASDGVGIIEQKTIKGITYRLSNDNNYLIKELGNKEYIYKNGVWEEYT | -0.155
3 | HMEENNIVIYITGAVKKEGIYEIKENSRISDAIEAAGGLLENANIKDINLAYIIEDGVKIYIPTNEEVNK | -0.409
4 | HMEEPFRIEKKGDIYYISGKTVERLVAMTDLDNDSAVKRLQRTLKRMGVEDALREHGINPGDTVVIGNYEF | -0.201
5 | HMEEQIEVPVQINGKVRSKLTVAPETDEKQIEALALADPKVQQQLEGKRVLKVIVAQKRLVNIVA | -0.161
6 | HMEESTYQWNNFVRDFYASRVSAQYTNKLKVAAILWHHVKNTPQSKIYHDNLVSKYAEEINYFK | -2.8
7 | HMEETEVPPVTGYEQSKASEVLTGKGLIPDIITVADEETAAGYVIRTDPASGEKVPSGTTVKVYVSSGP | 0.248
8 | HMEETGFYIKLQDQEVVIFHNDQVTPYEYTGIREEVLPESELEKLREGFFVEDEKELYSVLENLS | 0.0782
9 | HMEETLEELGKEYESAFTMYEKLWSYYKKQNYHQVNHKRSERYEILLGFVREYHPEKVEYYRELL | 0.378
10 | HMEETLRALAKKISEKVLKSGRSTTLEPMNPYERRIIHSAVSEIEGVSSKSVGEEPYRKVVISSDNP | 0.0756
11 | HMEETLRELAVKISKQVIKTGRNSVLEPMNPYERRIIHAVISEIEGVSSKSVGEDPNRKVVIMSTNP | -0.217
12 | HMEEYTVEFVKHKVKRKQTLYTISKLYNVSIDDIIKYNSQIEGFNLSRRMELNIPVKKTLIVKNE | -2.55
13 | HMEFDTEFVLRQAMHAFMQYGYAKTSMQKLKEATHLHPGSIYAAYGNKKGLFLAATEQYQKDR | 0.288
14 | HMEFEYFQLRDHLYNLIMHPDKEKLKKDPDYLKLMSMAFSLLEDQNVGKDILEIAIKSIENFK | -0.847
15 | HMEFLDLEIDVDATDGRLLAFLAAKGEVVSQTFNDTIITVRVRMPTGAMGQVHRSALAIRPA | -2.24
16 | HMEFLDQAFLHETMRKVNQDATINLLKKVYEVPQKFIGRKVTVQYDPEDLSRVYVKDLSFPEPVTVYPV | -0.18
17 | HMEFNDLNDDEKAILHIMYNTGEKMTTALAARITNRGRNFASKLLKSLVKKEILEWHGTSKQDRNQYYTLA | -0.0971
18 | HMEFQVKVIVSSLNIRSGPGTSYDTLGTVTKGDIFTIVETNSDSTWGKMQSGGWISIKDAYVKK | -3.92
19 | HMEFTFTLPRGYIDDTGMIHREGTMRLANAADEILPLKDPRVQQNPGYLTIILLARVITKLGSL | 0.33
20 | HMEFTKSPLDEIAGVGPARKRALLAAFGTAKAVSQAALADLEKTPGVNAATARLVYAHFHEK | -0.227
21 | HMEFTVFMNSAGGSKLQVVKTVKELTGLGLKEAKAIVDGSPGPVKEGLSKADAEAMLAKLQEAGADVEL | 0.013
22 | HMEFYYSDLVGMIVYDTGGNELGKVQAVLNHGAGDLLEIHGVNLKTSILIPFTKEAVPTVDIAARRIVTDP | 0.246
23 | HMEGAEDMNRALALAFLRDNSRSTVAQLAEHLGSSKRSAERLVAQLKDEGVLERQGSPRAGLWIVHI | -0.169
24 | HMEGEVVESPLVGVAYLASGPDKPAFVQVGDSVSKGQTLLIIEAMKVMNEVPAPRDGIVTEILV | 0.1
25 | HMEGFSAGQFVRASVDNTAFYLKRPKGDAVADKLLRRGASMKVISASGDYLKVELDSGEVGFVPPVMVE | 0.0267
26 | HMEGIWAVFYDGKPINLKSSSLVANYPGPKYKKVSFSNPGHAENLAKKLNAQHNTDKFGVYLLKSGDKFS | -0.113

Row | Sequence | soluble fraction (log2)
27 | HMEGMSIYVTVNGDMVHLTGKMSYVFVDVFEHIDFDLSKPQGSGIVTKLNGRDAQYMEEIRSGDMIEIYWR | -0.956
28 | HMEGNLVEIFEDAFGRTMSTMDIEYINQFKRTGYDDEMIVSALREAVKSNALSFRYIERVLENWAHS | -0.881
29 | HMEGTEVTTEPPGAQIEFDGKQFGPTPTRVPGLAAGKQFRITLAGYQEAKPKLKNNPKEGEPLSFTLTAI | 0.338
30 | HMEGTVQQDKFDAYKAKFEDAISNDLNTSMAITIIYDLLKDDMNDKTKLALINDFDKVLSLNLTTA | -0.219
31 | HMEGVTVPDVTRISLDEAEELLTSYGLRFEVADRRANSAFPGNYVIDQAPSAEVIVKPNRKIYLTVNAA | -0.238
32 | HMEHDTVLSKVFRRLREAHVPLSLDDIYQGLRKTVNNNSEIREKIVTLQERGLVAEILGPKGGKKYVAKPT | -0.693
33 | HMEHIEVDTSHIAVGSKVKHKAFGLGEITDKGNTYVFVKFDGQAIPKKFQFPGAFTQGFLTK | 0.236
34 | HMEHPNNTELTQKLELGTELMQYGDYNYALKVFNNVIDSDPEWSEAWNKRATVYFLMSQFTDSLSDIDRV | 0.331
35 | HMEIDMQEGIKTIILMMKEHNITPSEAMKIYKSANGDIHYISKIYNHFKNKGADNFVALMIKMVKPGEFIE | -2
36 | HMEIEETKKNSRTKIPENFDYKLINGLSNEIRAKLELIRPIDLLQASRIDGMTPAALTLVHLWIKKYSG | -1.52
37 | HMEIEIPEELQNKFAEIPELKTAFESLTPGRQRAYVLYFSQPKQSKTREARIEKYIPHILDGKGMN | 0.461
38 | HMEIESAHAQVLGVREIAASGATQHWIAFRFSDGHQRELLATPSQADVIFRGQQGVVHFAGDRLTGWIPE | 0.104
39 | HMEIEYFDDEELDAYKGRKSDSYTDEEAAQFAEVLYTMRPSEVKDWTASLTLRGISMPDQIKDEAIMLME | -0.148
40 | HMEIGELITLYRKQAGLTIDELSEKANVPKGTLNKIIGGITKAPTLETMRSIAYALGKKLADFDN | -0.503
41 | HMEIHQVEFGGKVISFVLERKPVKNVNLHIKPDMTVMVSANEKVPLDFILGFVKQKAAWILKNIQFFEDV | -3.57
42 | HMEIKDQADAYGKMEPASAAAILSEMTNDLTLVAKILDSMQTSKSALILQNMKPTTAAQVTTKMTAMK | 0.0474
43 | HMEILTRQLTHYLHLLPPAQQEVVRGVYLQDQTLQEIADRVQIPLGTVKSRLRLGLSKLREQIEQEHE | -1.36
44 | HMEIMELPEYVVRSGSGLDAFREKWDLWDQGLMYDLKDKRAVFPIFIDGVMIDAVGRALAGAEPKWLRYTG | -0.176
45 | HMEINEDEIYEKIMIEIEQDNKVKSTWAKALSQSDGNKDKAESLYISMRFEELKYHQSYQKEELNLKDNQQ | 0.0614
46 | HMEIPRYRLIGADGGRMVDLGEGQGAIPPVDVKRGMIDMPGLGKGYYTADGKSAVITNADGSKTRVL | -0.25
47 | HMEIRNLMPILSHFLNENDIKLSRESVNLVLDRASGNRENLNNELKKIHDYSFSNKIIDFETIKKLTNLG | -0.0896
48 | HMEISLAETLRSSLHMILGWYQNTGDKKLLELIRLHLQAYVNTGNSLNPEMEEIRAALETLGEGKEAFRP | -2.35
49 | HMEISNWLEEIGLSRYTETLSEFPLEDLVEFTDDDFKELGVLTPHRKKLLAAIATLNNDASSN | -0.245
50 | HMEISTEVPLRGGTISEEALEALNRLPGVTASNIDGKSISVDVADNAELRVSDINQVLAVHSPDTRV | -0.0403
51 | HMEITRDTVIQWLEAERRSQTWLSKQLGVSVQAVSNWLREKNPQTISASAQITIRALMEEDAAK | -1.11
52 | HMEIVQVIAQNIQDLLDKHKISVSELSGYLGISRQTLTNYLKTTSTIDSVQLVKIADFFNIPAEYLLKDH | -1.5

Row | Sequence | soluble fraction (log2)
53 | HMEIVSTEEKIKRAAEQVFLLRGLEGARMQEIADVAGINKAMLHYYFRNKETLFDVILSEKL | -2.11
54 | HMEIYEEDRTKVVNDLMDQILNRQITMDAAATKFINIRNSLGTTITKEDEQNLEMLRGLIFDKT | 0.2
55 | HMEIYIDGNKYVGELRNGKPNGRGTITYTGDGSKYVGEWKNGKRYGRGKMAYTNGTTKEGVWKDDEFLYAT | 0.181
56 | HMEKAKVPSVIGMTEANAKRTIRDAGFKVGRVTRVESEAYDKGKVIEQQYEAGSELEKKKPISIVVSKGKK | -0.108
57 | HMEKALEVKYQKMVELLGDQSTFYVDEVKKIFPEMKKSSLYWNMSKLVEGGYLRRIRNGVYAFNE | -0.401
58 | HMEKEKIKEALIGYFEAEPEEKFTVQELADKLKMNKAGQFNFVVQAVAQLEHDKVITLDDEGNFSLVRHE | 0.176
59 | HMEKERYDTGIGELNRVLGGGLVKGSLILISGDPGIGKSTLLLQTANNISKKYGKVLYVSGEESEEQIKIR | -0.879
60 | HMEKGWYKLGQDSYYVDDDGKIHKGWLELDGKKYYFDQEGKMVTGTVNIDGKDYTFNEKGELYVS | ≥ 1.04
61 | HMEKIELKTVIPENLKKKRLDFALSELFPEHSRSRIQSWIKEGSVMVNSKNYRQRDLVDAGDVVEINTEQK | 0.00949
62 | HMEKIIGQIQINQRGNGYVIVPNVKDDIFVKRENLNSARQGDRVAVQLLSRPNQKPEGLVQEVLERGQ | 0.637
63 | HMEKILSYKALMNDAGKRIDQFLANNEKDISRTRIKSLILEGSLKLDNNIINDPSYKIKENDVFTLFIPEA | -0.482
64 | HMEKIRIQKYLSERGVMSRRAADSALAEGRIAVNGVTARPGDKIDPSSDTLTIDGRIVTTGTAP | -0.0992
65 | HMEKKEWVIYITGAVKKPGVYRIPEGARVYQALEAAGGFTPEADRDAVNLAAMLQDGAHIKFPAVGEEV | -0.148
66 | HMEKLNYSISNEEQGQRIDKYLSLMIEGKSRSFIQGLIDDKKVMANGKVIKSNYKLKNNDEITVEMPDPI | -0.0366
67 | HMEKNILPDTSPEKQYEFATSFLKVGDYSTAERAFREFVINNSEHKLAGNAQYWYAETFRIRQ | 0.261
68 | HMEKSQIHLIHTRYVNPEQLVPILSMVIPAENIYVKSDSNLIIINGSSEMLREVESIVSKLDVPS | -0.255
69 | HMEKSSALRAKEAFMALYHDGKFKPGTKIPSESNMAELLGVSRETWRKALALLRGDGVLYSKHGSGTYLLE | 0.254
70 | HMEKTKLPNLVDFTYRQAEALLQTHGLKVGKVERVPDVGQTVIKAKYKGKVISWGTELNKGEKIDLVIGKG | -0.542
71 | HMELADLPSAQIREILAYVYRAPLEKRRDPSIHWLLIAAHKLTLPLLDRLDPADARALGERYGADYP | -0.00148
72 | HMELARLRPELDGNDIMRILGVPPGPVVGRAYTYLLELRINQGELGRERVTQLLLDWAAAEGISA | -2.76
73 | HMELDMTFGEKIQKLRKESGLSQEELSYQLGVSRQAISKWERDSGYPETEKIVRMSKIFDVTLDYLLNE | -0.582
74 | HMELEDTYTKNLDASLARLDEYQASKGLTDEQVDEVINSLIADAENIIMGVFTPELIDSKLKAMNYDQDV | 0.119
75 | HMELEFLTEKQKEALILAVNRGYYDVDSEVTLKRLADELGIARSTYGEHLKRAESEALKMVVSDLLRD | -0.556
76 | HMELEIPGELIEAVRRLRDERQRMRLAGELAARQIQMHPERYTEASIDPVQTWDELRARILALA | -0.485
